Measured values as given in IntAct's records for PubMed 27918561.

B1: Negative regulator of P-body association (Homo sapiens), A0A0U1RRE5 (parent)
chain: MGDQPCASGRSTLPPGNAREAKPPKKRCLLAPRWDYPEGTPNGGSTTLPSAPPPASAGLKSHPPPPEK
partner: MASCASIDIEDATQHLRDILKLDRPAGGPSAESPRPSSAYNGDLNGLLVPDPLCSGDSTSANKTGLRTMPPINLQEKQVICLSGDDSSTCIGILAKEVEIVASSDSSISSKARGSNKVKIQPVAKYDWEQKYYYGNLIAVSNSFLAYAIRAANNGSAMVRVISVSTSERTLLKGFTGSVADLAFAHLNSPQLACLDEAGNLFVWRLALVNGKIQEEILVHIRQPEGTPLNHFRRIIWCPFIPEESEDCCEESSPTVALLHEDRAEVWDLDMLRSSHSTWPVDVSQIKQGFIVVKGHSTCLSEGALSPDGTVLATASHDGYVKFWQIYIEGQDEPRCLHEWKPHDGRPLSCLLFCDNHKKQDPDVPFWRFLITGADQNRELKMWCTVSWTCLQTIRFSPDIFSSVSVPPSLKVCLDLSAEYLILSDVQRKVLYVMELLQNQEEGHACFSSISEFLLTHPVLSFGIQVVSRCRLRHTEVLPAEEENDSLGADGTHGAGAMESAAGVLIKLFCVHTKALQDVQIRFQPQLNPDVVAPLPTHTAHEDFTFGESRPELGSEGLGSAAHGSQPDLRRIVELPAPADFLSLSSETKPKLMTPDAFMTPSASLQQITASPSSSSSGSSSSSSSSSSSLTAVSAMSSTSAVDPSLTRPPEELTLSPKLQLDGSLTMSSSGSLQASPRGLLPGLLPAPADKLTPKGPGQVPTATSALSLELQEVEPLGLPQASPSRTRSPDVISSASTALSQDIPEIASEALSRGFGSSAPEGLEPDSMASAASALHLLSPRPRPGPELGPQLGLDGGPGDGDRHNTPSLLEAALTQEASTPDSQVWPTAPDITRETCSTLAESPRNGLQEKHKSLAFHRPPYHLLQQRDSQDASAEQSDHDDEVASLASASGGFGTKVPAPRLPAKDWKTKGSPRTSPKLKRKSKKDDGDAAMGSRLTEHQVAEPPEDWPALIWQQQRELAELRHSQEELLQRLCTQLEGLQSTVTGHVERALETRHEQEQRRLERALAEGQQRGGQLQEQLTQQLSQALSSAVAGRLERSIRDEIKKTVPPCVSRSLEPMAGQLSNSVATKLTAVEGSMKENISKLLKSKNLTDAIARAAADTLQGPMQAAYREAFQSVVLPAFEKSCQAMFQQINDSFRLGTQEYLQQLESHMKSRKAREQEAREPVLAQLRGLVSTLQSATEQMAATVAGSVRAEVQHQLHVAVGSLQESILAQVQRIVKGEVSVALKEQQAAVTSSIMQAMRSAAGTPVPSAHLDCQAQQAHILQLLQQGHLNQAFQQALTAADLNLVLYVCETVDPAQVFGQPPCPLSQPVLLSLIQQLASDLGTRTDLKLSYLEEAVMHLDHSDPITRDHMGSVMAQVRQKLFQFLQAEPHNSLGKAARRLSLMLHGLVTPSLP

Variants of: B1
Conditions: with edc4_human EDC4, Q6P2E9

Variant	effect of a mutation on the interaction
K26A	with no effect
C28A	with no effect
R27A	with no effect
K22A	with no effect
G39A	with no effect
P41A	with no effect
E38A	with no effect
P24A	with no effect
T40A	with no effect
D35A	with no effect
L30A	disrupting interaction strength
W34A	disrupting interaction strength
P37A	with no effect

Other lines, results leading:

effect of a mutation on the interaction	Variant
with no effect	Y36A
with no effect	P23A
with no effect	P32A
with no effect	L29A
with no effect	R33A
with no effect	K25A
